Key:
[1] = target: natural Fel d1 (cat (Felis domesticus)) (UniProt P30438); assay: SPR Biacore T200 sequential binding, 25 µg/mL mAb2 over mAb1:Fel d1; coupled mAb1: REGN1909
[2] = target: natural Fel d1 (cat (Felis domesticus)) (UniProt P30438); assay: blocking ELISA, Fel d1 binding to plate-captured polyclonal human IgE
[3] = target: Fel d1 (B-A)-mmH (cat (Felis domesticus)); assay: blocking ELISA, Fel d1 binding to donor polyclonal cat-allergic IgE
[4] = target: natural Fel d1 (cat (Felis domesticus)) (UniProt P30438); assay: cell-based or functional assay

Chain of Fel d1 (B-A)-mmH (cat (Felis domesticus)) (chain, as listed by the source limits assumed): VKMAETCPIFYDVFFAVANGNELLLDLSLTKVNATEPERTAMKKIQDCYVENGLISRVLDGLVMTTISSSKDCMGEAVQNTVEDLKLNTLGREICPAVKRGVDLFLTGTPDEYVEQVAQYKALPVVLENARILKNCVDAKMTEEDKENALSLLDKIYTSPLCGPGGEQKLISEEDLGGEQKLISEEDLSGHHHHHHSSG

| Non-binding Control mAb (RU) [1] [RU] | IC50 [2] [nM] | maximum blockade [2] [%] | IC50 [3] [nM] | basophil activation test, CD63 upregulation on basophils of cat-allergic donors, IC50 [4] [pM] | basophil activation test, CD203c upregulation on basophils of cat-allergic donors, IC50 [4] [pM] | phosphoflow assay, phosphorylation of ERK in basophils, inhibition [4] [%] | Substance |
| --- | --- | --- | --- | --- | --- | --- | --- |
| -64 | – | – | – | – | – | – | Non-binding Control mAb (antibody) |
| – | 0.45 | 83 | 0.58 | 10 | 55 | > 80 | REGN1908-1909 |
